Reference: PMC11686114 (Frontiers in Immunology, 2024)
Ends that are not written are not given here.

Key:
Experiment in all cases: ELISA; confirmatory monoclonal phage ELISA; antigens peptide alone, peptide-BSA, peptide-biotin; controls PBS, 10% BSA-PBS, PBS-streptavidin; phage dilution factors 1, 3, 9
[1] = target: T1, TRBV5-1 antigenic peptide No. 1 (…) conjugated to BSA (human)
T1 sequence (peptide): TQTPRYLIKTRGQQ

[2] = target: T2, TRBV5-1 antigenic peptide No. 1 (TQTPRYLIKTRGQQ), peptide alone (Homo sapiens); conditions: one partner purified
T2 construct: short form of antigenic peptide No. 1 of the TRBV5-1 segment of the human TCR beta chain; also called Ag1; Peptide N. 1; source: synthetic peptide (Proteogenix)
T2 chain: TQTPRYLIKTRGQQ

[3] = target: T3, TRBV5-1 antigenic peptide No. 1 (TQTPRYLIKTRGQQ), biotinylated (Homo sapiens, also: biotinylated (site not given here)); conditions: one partner purified
T3 construct: short form of antigenic peptide No. 1 of the TRBV5-1 segment of the human TCR beta chain; probably held on streptavidin, since its control is PBS-streptavidin (surmise); also called Ag3; peptide-biotin; source: synthetic peptide (Proteogenix)
T3 chain: TQTPRYLIKTRGQQ

B1: scFv clone A8 (scFv, V domains shown)
VH: QVQLVQSGPEMKKAGASVRVSCKGSGYTFSSFDINWVRQVPGQGLEWMGWMNPDTGNTGLAQKFQGRVTMTRDTSIRTAYMELRSLRSDDTAVYYCARDAPRNGRGMDVWGQGTMVTVSS
VL: SYELTQPPSVSVSPGQTARITCSGDALPKQYAYWYQQKPGQAPVLVIYQDTKRPSGIPERFSGSSSGTTVTLTISGVQAEDEADYYCQSADSSGTYPVFGGGTKLTVL
notes: tested as phage clone in the confirmatory monoclonal ELISA; source: phage display clone from the human naive scFv library LiAb-SFMAX (Proteogenix), amplified in E. coli TG1
ELISA signal at phage dilution factor 1 [1]: 4.58 | ELISA signal at phage dilution factor 3 [1]: 4.2 | ELISA signal at phage dilution factor 9 [1]: 4.14 | ELISA signal at phage dilution factor 1 [2]: 0.94 | ELISA signal at phage dilution factor 3 [2]: 0.37 | ELISA signal at phage dilution factor 9 [2]: 0.14 | ELISA signal at phage dilution factor 1 [3]: 2.09 | ELISA signal at phage dilution factor 3 [3]: 2.06 | ELISA signal at phage dilution factor 9 [3]: 2

B2: scFv clone D5 (scFv, V domains shown)
VH: QVQLVQSGAEVKKPGASVKVSCKPSGYYFNGYDITWVRQAIGQGLEWMGWMNPNSGNRDYAHQFQGRLTMTWDTSLSTAYLELNNLQSDDTAIYYCARERVSSGLDFWGQGTLVTVSS
VL: SYELTQPPSVSVSPGQTARITCSGDALPKQYAYWYQQKPGQAPVLLIYKDSERPSGIPERFSGSSSGTTVTLTISGVQAEDEADYYCQSADSSGTYVVFGGGTQLTVL
notes: as for B1
ELISA signal at phage dilution factor 1 [1]: 4.03 | ELISA signal at phage dilution factor 3 [1]: 3.56 | ELISA signal at phage dilution factor 9 [1]: 3.5 | ELISA signal at phage dilution factor 1 [2]: 0.75 | ELISA signal at phage dilution factor 3 [2]: 0.32 | ELISA signal at phage dilution factor 9 [2]: 0.13 | ELISA signal at phage dilution factor 1 [3]: 2.38 | ELISA signal at phage dilution factor 3 [3]: 1.9 | ELISA signal at phage dilution factor 9 [3]: 1.67

B3: scFv clone A12 (scFv, V domains shown)
VH: QVQLQQWGAGLLKPSETLSLTCAVYGGSFSGYYWSWIRQPPGKGLEWIGEINHSGSTNYNPSLKSRVTISVDTSKNQFSLKLSSVTAADTAVYYCARWDLDYWGQGTLVTVSS
VL: EIVLTQSPLSLPVTLGQSASISCRSSQSLVHSDGNTYLNWFQQRPGQSPRRLIYQVSKRDSGVPDRFSGSGSGTDFTLRISRVEAEDVGFYYCMQGTHWPPITFGQGTRLEIK
notes: tested as phage clone in the confirmatory monoclonal ELISA; lead scFv from which the r-hIgG1 mAb was made; also called lead scFv; source: phage display clone from the human naive scFv library LiAb-SFMAX (Proteogenix), amplified in …
ELISA signal at phage dilution factor 1 [1]: 2.93 | ELISA signal at phage dilution factor 3 [1]: 1.82 | ELISA signal at phage dilution factor 9 [1]: 0.78 | ELISA signal at phage dilution factor 1 [2]: 0.99 | ELISA signal at phage dilution factor 3 [2]: 0.33 | ELISA signal at phage dilution factor 9 [2]: 0.12 | ELISA signal at phage dilution factor 1 [3]: 2.79 | ELISA signal at phage dilution factor 3 [3]: 1.99 | ELISA signal at phage dilution factor 9 [3]: 1.22

B4: scFv clone C10 (scFv, V domains shown)
VH: EVQLVQSGAEVKKPGSSVKVSCKASGGTFSSYAISWVRQAPGQGLEWMGGIIPIFGTANYAQKFQGRVTITADKSTSTAYMELSSLRSEDTAVYYCAREPLRGYSGYDFYYYGMDVWGQGTMVTVSS
VL: SYELTQPHSVSGSPGETVTISCAGSGGSIASNYVQWYQQRPGSAPTTLIYEDKVRPSGVPDRFSGSIDYSSDSASLTISGLKTEDEADYYCQSADSTSTYVFGTGTKVTVL
notes: as for B1
ELISA signal at phage dilution factor 1 [1]: 3.83 | ELISA signal at phage dilution factor 3 [1]: 3.55 | ELISA signal at phage dilution factor 9 [1]: 3.04 | ELISA signal at phage dilution factor 1 [2]: 1.19 | ELISA signal at phage dilution factor 3 [2]: 0.75 | ELISA signal at phage dilution factor 9 [2]: 0.42 | ELISA signal at phage dilution factor 1 [3]: 2.11 | ELISA signal at phage dilution factor 3 [3]: 1.72 | ELISA signal at phage dilution factor 9 [3]: 1.62

B5: scFv clone A2 (scFv, V domains shown)
VH: QVQLQQSGPGLVKPSQTLSLTCAISGDSVSSNSAAWNWIRQSPSRGLEWLGRTYYRSKWYNDYAVSVKSRITINPDTSKNQFSLQLNSVTPEDTAVYYCARDQAAAEVYFDYWGQGTLVTVSS
VL: NFMLTQPHSVSESPGKTVTISCTRSSGSIASNYLQWYQQRPGSAPTTVIYEDNQRPSGVPDRFSGSIDSSSNSASLTISGLKTEDEADYYCQSYDNRNHWVFGGGTQLTVL
notes: as for B1
ELISA signal at phage dilution factor 1 [1]: 4.3 | ELISA signal at phage dilution factor 3 [1]: 4.04 | ELISA signal at phage dilution factor 9 [1]: 3.84 | ELISA signal at phage dilution factor 1 [2]: 0.95 | ELISA signal at phage dilution factor 3 [2]: 0.91 | ELISA signal at phage dilution factor 9 [2]: 0.35 | ELISA signal at phage dilution factor 1 [3]: 2.46 | ELISA signal at phage dilution factor 3 [3]: 1.85 | ELISA signal at phage dilution factor 9 [3]: 1.28

B6: scFv clone A5 (scFv, V domains shown)
VH: QVQLQQSGPGLVKPSQTLSLTCAISGDSVSSNSAAWNWIRQSPSRGLEWLGRTYYRSKWYNDYAVSVKSRITINPDTSKNQFSLQLNSVTPEDTAVYYCARDQAAAEVYFDYWGQGTLVTVSS
VL: NFMLTQPHSVSESPGKTVTISCTRSSGSIASNYVQWYQQRPGSSPTTVIYEDNQRPSGVPDRFSGSIDSSSNSASLTISGLKTEDEADYYCQSYDSSNHWVFGGGTKVTVL
notes: as printed identical to the VH of A2; tested as phage clone in the confirmatory monoclonal ELISA; source: phage display clone from the human naive scFv library LiAb-SFMAX (Proteogenix), amplified in E. coli TG1
ELISA signal at phage dilution factor 1 [1]: 4.09 | ELISA signal at phage dilution factor 3 [1]: 3.8 | ELISA signal at phage dilution factor 9 [1]: 3.74 | ELISA signal at phage dilution factor 1 [2]: 0.88 | ELISA signal at phage dilution factor 3 [2]: 0.37 | ELISA signal at phage dilution factor 9 [2]: 0.11 | ELISA signal at phage dilution factor 1 [3]: 2.73 | ELISA signal at phage dilution factor 3 [3]: 2.53 | ELISA signal at phage dilution factor 9 [3]: 1.55
